Results on one molecule are retold here after patent US20220098289A1 (CONSEJO SUPERIOR DE INVESTIGACIONES CIENT FICAS, published 2022).

The target in the experiment is T1, human Aβ1-42 peptides (human, UniProt P05067 672-713).
T1 construct: domain: Aβ1-42; Synthetic peptide prepared to obtain minimal aggregation; also called Aβ peptides
Nature of the experiment: recombinant proteins mixed in vitro for 24 hrs at 37° C., then Western blot. As for the experimental part: Protein-protein binding assays. Nanomolar concentrations of recombinant human SFRP1 (RD cat: 5396-SF-025) and human Aβ1-42 peptides (Invitrogen, cat: 03-111, prepared to obtain minimal peptide aggregation) were mixed in protein Lobind tubes (Eppendorf) for 24 hrs at 37° C. NuPAGE LDS sample buffer (4×) was added to the tubes, boiled for 5 min and subjected to Western blot analysis. Microplate-based solid-phase protein-protein binding assays was performed by immobilizing in wells 200 ng/well of either human Aβ1-42 peptides, BSA, used as a […] control because previously described as an Aβ interactor; or heparin, a described SFRP1 binding partner. Immobilization was performed overnight at 4° C. The wells were then washed with TBS 3× and incubated with two different SFRP1 concentrations for 2 hrs at RT. In the converse experiment, BSA, heparin or SFRP1 were immobilized overnight at 4° C. and two different concentrations of Aβ1-42 were added for 2 hrs at RT. The wells were washed 6× in TBS and 2× sample buffer containing β-mercaptoethanol was added to the well. The content was recovered by scrapping, boiled for 5 min and analyzed by SDS-PAGE followed by WB using anti-Sfrp1 or anti-Aβ antibodies, respectively.
For orientation: A western blot detects proteins with antibodies after separation by electrophoresis.

T1 sequence (P05067 672-713 limits assumed): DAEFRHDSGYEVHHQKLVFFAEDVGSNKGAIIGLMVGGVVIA

B1: human recombinant SFRP1 (other, UniProt Q8N474 32-314, looked up)
chain: SEYDYVSFQSDIGPYQSGRFYTKPPQCVDIPADLRLCHNVGYKKMVLPNLLEHETMAEVKQQASSWVPLLNKNCHAGTQVFLCSLFAPVCLDRPIYPCRWLCEAVRDSCEPVMQFFGFYWPEMLKCDKFPEGDVCIAMTPPNATEASKPQGTTVCPPCDNELKSEAIIEHLCASEFALRMKIKEVKKENGDKKIVPKKKKPLKLGPIKKKDLKKLVLYLKNGADCPCHQLDNLSHHFLIMGRKVKSQYLLTAIHKWDKKNKEFKNFMKKMKNHECPTFQSVFK
notes: Bought recombinant protein; also called hSFRP1; recombinant hSFRP1
For B1, the binding result was “binds”.
